From a protein production outcome set (Wang et al. 2014)

Assay: label from the status in PepcDB records
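Note: failed if final PepcDB status was selected cloned or expressed and not failed if soluble or beyond.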

| Sequence | protein production |
| --- | --- |
| MSKLEFLAFYDELTGLPNKNSLIRWLNLKVSQMDCIDTYLIFLEVRDLEKLNVTYGYDLVDELIIHISKRIKDIAGEGNKAFKIGFDRFAIICKSENISDFIERMLSQLLLPYNVNGNLIRVNFNIGAAQIENSNEAAANLMRRCDLALIKAKEEGLNEYVIFKPSIEIQTLEHHHHHH | not failed |
| MSKLIGMLLNDKQVYVGPFLRGKKGILLAVESLKGNTFDDKQWVVDRAQKKSEREMELKVPYEQSLKEIADKFQSYNFRGSGFVAFSTQNVTISGICKDVIDESVAMPPSVGPRMPIYPLGSPGIRKSMFYG | not failed |
| MSKLKTIALTASGLSVCPGFLYAQNTSSHQIGLAIMRLNSSILDLPPTKQYFQSGSLWSELRQGFRMGEVNPELVRRHESKFIASHSYFNRVINRSRPYMYHIANEVKKRNMPAEAALLPFIESAFVTKAKSHVGASGLWQFMPATGRHYGLEKTPVYDGRHDIYAATDAALNYLQYLYGLFGDWPLAFAAYNWGEGNVGRAINRARAQGLEPTYENLRMPNETRNYVPKLLAVRNIIAAPQSFGMNISDIDNKPYFQAVEPDRPLDNEAIARLAGITQSELLALNPAFNVPAFIPKSKRKLLLPVASVQTFQSNYLNAAPDSLFSWEVYTPAAKTSLSDISTATGMSIADIKRLNNLNGNLVNAGRSILVAKNGKTLQTASESVVSIDIDNTPNTYRSNMPAGTVNVGIARIRPAAAQTADITVAPLPQKTVRTEPDPLVRIAEPALATAAAQPQTEKQTAMPSETQTATLAQIVPQNDMQAADELMQLVARNNLRRQAEETISAVIGTPDTVAEHNISSSPQHTVAADGKRRVRLETRVAKAADGEAEISPLHASIHRVVEGDTLFNIAKRYNVSVADLIVANNIKGNTIQKGQVLRLAQAAPAQTRIEKVSYTARKGDTFKSIAARFNIHIDDIRRLNPNLNTINPGQRVKLIGS | failed |
| MSKMRFFALQELSNRKPLEITTPSNKLSDYYASHVFDRKKMQEYLPKEAYKAVVDATEKGTPISREMADLIANGMKSWAKSLNVTHYTHWFQPLTDGTAEKHDGFIEFGEDGEVIERFSGKLLIQQEPDASSFPNGGIRNTFEARGYTAWDGSSPAFVVDTTLCIPTIFISYTGEALDYKTPLLKALAAVDKAATEVCQLFDKNITRVFTNLGWEQEYFLVDTSLYNARPDLRLTGRTLMGHSSAKDQQLEDHYFGSIPPRVTAFMKELEIECHKLGIPVKTRHNEVAPNQFELAPIFENCNLANDHNQLVMDLMKRIARKHHFAVLFHEKPYNGVNGSGKHNNWSLCTDTGINLFAPGKNPKGNMLFLTFLVNVLMMVHKNQDLLRASIMSAGNSHRLGANEAPPAILSIFLGSQLSATLDEIVRQVTNSKMTPEEKTTLKLGIGRIPEILLDTTDRNRTSPFAFTGNRFEFRAAGSSANCAAAMIAINAAMANQLNEFKASVDKLMEEGIGKDEAIFRILKENIIASELIRFEGDGYSEEWKQEAARRGLTNICHVPEALMHYMDNQSRAVLIGERIFNETELACRLEVELEKYTMKVQIESRVLGDLAINHIVPIAVSYQNRLLENLCRMKEIFSEEEYEVMSADRKELIKEISHRVSAIKVLVRDMTEARKVANHKENFKEKAFAYEETVRPYLESIRDHIDHLEMEIDDEIWPLPKYRELLFTK | not failed |
| MSKPAITLWSDAHFFSPYVLSAWVALQEKGLSFHIKTIDLDSGEHLQPTWQGYGQTRRVPLLQIDDFELSESSAIAEYLEDRFAPPTWERIYPLDLENRARARQIQAWLRSDLMPIREERPTDVVFAGAKKAPLTAEGKASAEKLFAMAEHLLVLGQPNLFGEWCIADTDLALMINRLVLHGDEVPERLVDYATFQWQRASVQRFIALSAKQSG | not failed |
| MSKTPRIRIPPEVRQYVFQRDKFQCQSCGKTGLETNLTIDHIIPLARGGQNDISNLHTLCFDCNRCKTDKLDSRFRRHFEI | failed |
| MSKVVGLSSKKSRWLLQSLRDQQRHSLGTGFESANILLSPKYHLKDKDLRKIHKAARVGDAARVQQLLLGKCGVNDKDKKKRWQGPRDGGCGGGGACVEESPHTTALHIACAYGHPKVVMALIEGRCEINATDSEECTSLVKAVQCQEEECATILLENGADPNIVDAQGNSALHYAVYYKNTSLAAKLLDHEVNIEATNKVEILHQRGVNQSTIVAKCVENPGLQSTGTIFCPHLTPLPEQGLTSSLKLTVVLNLAGGGGGEVSRGGRETETDTGGFTPLLLAVSENKLQIAKFLLMKNANIHAVDNQKRTALMHAVSHDSTHLVRFVLQQGVDLFLNDAFGLTAIDYAADFKYNTKVKQHQGLEKKSKSVSENLPLIRIGVDGLLQVNGQAVEEGRKQEWSEWGASESLQAAALDGGDLTSPLPRRRNKQAGKPGTQESPSVDSKEQDGGSDLNIKEENKKGYEEWSRDFVNELTSEKFGSVACDLLPVKDSWSLNGMDPNKGRPAKRKSKEKHKVEASLMMAEHGIDL | failed |
| MSLAADKVDILYLEDDEVDIQSVERVFHKISSLIKIEIAKSGNQALDMLYGRNKENKIHPKLILLDINIPKMNGIEFLKELRDDSSFTDIEVFVLTAAYTSKDKLAFESLNIRGHLIKPLDYGEAIKLFWILQSMEGHHHHHH | not failed |
| MSLAEFRAQYLVRFWSPIPALLALGVASAYYFAITGTFWAVTGEFTRWGGHIAALLGFSPQQWSYFQLIGLNGSPLERIDGVMIIGMFAGALCAALWAGNVQLRWPTSRRRLAQGLIGGIIAGFGARLAMGCNLAAFFTGIPMFSLHAWAFMLTTVIGAWIGVKLCLLPFLRTPLRLDTAPSSLFADTASLARRARLQNRLGLLIAVLVLGFAAWRFETSLVLGLAVLFGVFFGAVIERGQICFTSAARDLWTTGRTRIAYGILLGMVVACLGTFGAIALGATPKIFWMGPNAALGGLLFGIGIVLAGGCETGWMYRAMEGQVHFWIVGIGNVIGGTLVAIFWDELGGTLALPYPKINLLEYLGAGTGLLLSLAGLMLAMLLVYLNARRFAVREGLAR | failed |
| MSLAEPRYKADIGGGSLKLPESRIIAGLLLEGVTEDQWRHAIEVENVLQRRSPGTAKRQSSLMRNRLETMGPELWQMVRDGSTQVAIQAVFAAAIKHSTLLGDFLDLVVRDQFRMFRPDLPRKMWDQYLEQCRNRDPLMPVWQDSTANKLADCVYRILVEVGYITDSKTYRLKSVRISGEVMSYLRENNEQYVIRCIQVSIEGHHHHHH | not failed |
| MSLAEVGSKSVLFVCLGNICRSPIAEAVFRKLVTDEKVSDNWAIDSSAVSDWNVGRPPDPRAVSCLRNHGISTAHKARQITKEDFATFDYILCMDESNLRDLNRKSNQVKNCKAKIELLGSYDPQKQLIIEDPYYGNDSDFEVVYQQCLRCCKAFLEKTYEGHHHHHH | not failed |
| MSLAHERSSGIYLVAASAVLWSTAGLFVRMADMDMWSMVAWRSAFTFLALGAFFLLRNRFARQRSSMSFGFPGIAGCLVSAIAAITYIASLRWTTVANVMTIYATLPFIVAGIAFVCLRDRVTYRFVIAGCLAFVGVLISVGAAVSHQDMLGIFAAFIMTTGCATQIVIAKRFPDMDTTLMTALAALICICVALPLMQFEIPAPTQIIACALYGVLTTAFGYIFLLQGSRRINAGEAGLISMLDVILGPVWVWLFYNEVISPIVLTGGGIVIMSVAWYLAGDRRAATAP | failed |
| MSLALYLGNKRMNDMYYTIGQVAKMQHLTISQIRYYDKQGLFPFLQRNEKGDRIFNEEALKYLEMILCLKNTGMPIQKIKQFIDWSMEGDSTILHRLKLMKQQEANVLQLIQDTEKNLKKIQQKIAKYEDEISSANATTKEGHHHHHH | not failed |
| MSLARCERLRGAALRDVLGRAQGVLFDCDGVLWNGERAVPGAPELLERLARAGKAALFVSNNSRRARPELALRFARLGFGGLRAEQLFSSALCAARLLRQRLPGPPDAPGAVFVLGGEGLRAELRAAGLRLAGDPSAGDGAAPRVRAVLVGYDEHFSFAKLREACAHLRDPECLLVATDRDPWHPLSDGSRTPGTGSLAAAVETASGRQALVVGKPSPYMFECITENFSIDPARTLMVGDRLETDILFGHRCGMTTVLTLTGVSRLEEAQAYLAAGQHDLVPHYYVESIADLTEGLEDEGHHHHHH | not failed |
| MSLARPLSFHEDRLFPSDPATRSYARGLYALVKDLPIISPHGHTDPSWFATNAPFQDATDLLLAPDHYLFRMLYSQGVSLDALKVRSKAGVPDTDPREAWRVFASHFYLFRGTPSWVWLNHVFSQVFGFTEFLEASNADDYFDRITAALATDAFRPRALFDRFNIETLATTEGPHESLQHHAAIRESGWGGHVITAYRPDAVIDFEDERSPRAFERFAETSGQDVYSWKSYLEAHRLRRQAFIDAGATSSDHGHPTAATADLSDVEAEALFNSLVKGDVTPEKAELFRAQMLTEMAKMSLDDGLVMQIHPGSHRNHNVGLLNSHGRDKGADIPMRTEYVDALKPLLTRLGNDPRLSIILFTLDETTYSRELAPLAGHYPVLKLGPSWWFHDSPEGMMRFREQVTETAGFYNTVGFNDDTRAFLSIPARHDVARRVDSAFLARMVAEHRMDLVEAEELIVDLTYNLPKKAYKLDQRPDWARPATLRAAAEEGHHHHHH | not failed |
| MSLARQVTAFNTGWQFKKGPFATDPMRAASQWDGKWETVEIPHTWNAMDMQVQSGSFYEGAGYYRKTQFFPHDLEGKRVFLRFEGVGACAEVYVNGKLAGTHKGGYSAFACEIGTALKLGAENEIIVKADNKARPDVIPVNQNLFGVYGGIYRPVWLIVTEQNNITVTDCASPGVYITQKDVSKKSADITVKVKLDNAGLQPAAVTLENTIYTQEGQKVGTHSRSFDLSPQGTQTYLSTFKLKNPHLWQGRKDPYLYKVVCRLMADGKVIDEVVQPLGVRKYEIVAGKGFFLNGEKYSMYGVTRHQDWWGLGSALKNEHHDFDLAAIMDVGATTVRFAHYQQSDYLYSRCDTLGLIIWAEIPCVNRVTGYETENAQSQLRELIRQSFNHPSIYVWGLHNEVYQPHEYTAALTRSLHDLAKTEDPDRYTVSVNGYGHMDHPVNLNADIQGMNRYFGWYEKKIQDIKPWVEQLEKDYPYQKLMLTEYGADANLAHQTEYLGDALNWGKPFYPETFQTKTHEYQWSIIKDHPYIIASYLWNMFDFAVPMWTRGGVPARNMKGLITFDRKTKKDSYFWYKANWSEEPVLYLTQRRNADREKRTTAVTVYSNIGTPKVYLNGQELSGIRNGYTDVHYVFDNVSLADGKNILKAVVSTKGKEYTDEIEWNYSGEKNREIDSYENKNEHSGEGHHHHHH | not failed |
| MSLDCRVRESIQEEAKGIVAPPELKEKVIVQIKMNQGGRKRKKRLIAGVLAAAFLIPTTGFAYQSIMADGIYGSFENLKKHAGTMTLEAYMRFSAKLSEAKDEMGTKEYEVFTKELKKLTNAKLAYGDSNGNIDYDALSSEKREEMKKVSMGLQPYFDKLNGHKSSKEVLTQEEFDRYMEALMTHEIVRVKTKSTGAIKVEEIPEAYKERFIKAEQFMEYVDEKVR | not failed |
| MSLDLPEGHPLKTLYQENKEIMKDAEMLNLYAKTLATTKDERMREEILGVLEEIVSSLRMVGFTHYNREEMLIFPYIERRGLTVIATVLWTKHDEIRAMIKQLAELLRKREEMPWEEFVEKFKAKAGEVAFALSDMVFRENNIFYPTLKALLSEGEWKAIKMQEDEIGYYKVKPPEWDPGEDVKPLHPWEINPELNVEQLLTLPKEVQQALRGQPLEFDKTQLKREEDIDLGTGYLNIEELKAIFEALPVDVTFIDKDDRVRFFSPGERIFTRTPSVLGRPVQLCHPPKSVYVVNKILKAFKEGRKKEATFWLRLREKYVYIKYVPLFNEKGEYIGTLEMTMDIAPYKKIEGEKRLLDWRDEGHITITTDPNSSSVDKLAAALEHHHHHH | not failed |
| MSLDSDVIVDRRRMRRKLTFWRVAAVLVAIVAVVAIGAMVSPAGRGALTSTGSIARIKIEGLIRSNDERVQALDRLGKSSYSAVIVHINSPGGTTAGSEELHDALARLKAKKPMVVVVEGLAASGGYIAALASEHIVAQQTSLVGSIGVLFQYPNVSELLKTVGVKVEEVKSSPLKAAPNGFEPTSPEARAAIEALVKDSYAWFRGMVQQSRKMTDDQLNVVADGRVFTGRQAVGLKLIDELGDERTAIAWLEKAKNVKAGLPVRDYKLAPQFGDLTFLRAAASVAFDAAGLGVIARRVEQTGAMQSVERLGLDGMLALWAPSAGQ | failed |
